According to the supplement of paper PMC10567573:

B1: SMTNL2 (parent)
chain: AFTMAENLANCERLIEVEDMMVMG
B2: COX4I1 (parent)
chain: VAHVKHLSASQKALKEKEKASWSS

Variants of: B1
Test: protein stability index of a GFP-peptide fusion (GPS, HEK-293T) (PSI 1-6); higher = more stable
Conditions: c terminus: a fixed tail appended
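Note: lentivirally expressed fusions sorted by FACS into six bins by GFP to DsRed ratio, PSI derived from sequencing read proportions per bin multiplied by bin number.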

Protein stability index of substitutions, site by site:
N10: H 2.19
M23: W 2.1; P 2
G24: I 1.64
A9: N 2.49; C 2.48
T3: F 1.71; R 2.11
E12: C 1.55; G 2.06; L 1.7
M20: R 2.16
E6: R 1.51
F2: K 3.5; A 3.7

Variants of: B2
Test: as above
Conditions: c terminus: a fixed tail appended

Protein stability index of substitutions, site by site:
L7: I 3.79; N 3.85; D 4.03; T 3.54; M 3.4; S 3.6; F 3.42; W 2.84; V 3.68; G 3.99; A 2.27; C 3.47; Q 3.36; K 3.43; P 3.91; R 2.99; E 4.3; H 3.72; Y 3.36
H6: T 2.97; K 3.51; M 3.12; D 3.81; G 3.45; P 3.98; I 3.24; Y 2.5; V 2.96; W 2.32; N 3.38; Q 4.45; R 3.41; S 3.38; L 3.3; C 3.21; F 2.78; A 3.24; E 3.87
K5: I 2.4; P 3.64; W 2.65; T 3.66; C 2.61; D 3.27; E 3.69; Q 3.12; G 3.88; V 3.1; M 2.78; H 2.93; A 3.67; S 3.72; Y 2.55; L 3.28; F 2.45; N 3.45; R 2.65
V1: Y 2.7; P 3.53; F 2.34; C 3.06; H 3.25; D 3.98; G 4.06; E 3.79; I 3.35; M 3.05; Q 4.05; A 3.05; T 4.03; W 2.41; N 3.96; S 3.73; K 3.57; L 2.95; R 3.83
S8: Y 2.55; E 3.6; A 3.57; M 2.92; Q 3.24; I 3.1; P 3.62; D 3.86; G 3.64; R 3.11; C 2.41; W 2.35; F 2.2; N 3.53; H 3.22; K 3.46; V 2.7; T 3.1; L 3.02
A9: C 2.42
H3: K 3.16; F 2.52; D 4.11; N 4.5; T 3.77; R 3.19; E 4.11; C 2.75; W 2.1; G 3.22; I 2.58; S 3.27; Y 2.7; P 3.73; L 2.6; A 3.44; V 3.13; Q 3.28; M 3.43
A2: M 3.19; D 3.6; H 3.72; K 3.02; W 2.92; Y 2.3; R 2.77; T 3.86; L 3.38; I 2.29; G 3.29; C 3.44; N 2.81; P 3.77; S 3.25; Q 3.46; V 2.72; F 2.23; E 3.77
V4: D 3.45; A 4.1; N 3.64; L 2.88; T 4.15; S 3.35; R 2.91; H 3.74; F 2.83; G 3.47; W 3.25; M 3.55; Q 2.73; I 3.03; E 3.71; Y 3.27; C 3.34; K 3.48
